From paper PMC10501992, “How Pol α-primase is targeted to replisomes to prime eukaryotic DNA replication” (Molecular Cell, 2023)
Blank lines part the entries; values can stand above or below the binder they belong to.

What was measured:
Details in all cases: both partners purified
Mcm3 (budding yeast) = target: T1, Mcm3 (budding yeast) (S. cerevisiae, UniProt P24279 1-971); experiment: cryo-EM structure; budding yeast replisome: 150 nM CMG on fork DNA (39 nt 3′ flap, 60 nt 5′ flap) with 1.5-fold molar excess of Tof1-Csm3, Mrc1 and Pol α-primase; 25 mM HEPES-NaOH pH 7.6, 150 mM NaOAc, 0.5 mM TCEP, 500 μM AMP-PNP, 10 mM Mg(OAc)2, on ice; 10-30% glycerol gradient with glutaraldehyde and BS3 cross-linkers
T1 construct: Mcm3, S. cerevisiae; stood in the assay as a subunit of m2; source: subunit of CMG from S. cerevisiae strain yJY197, purified as described previously

Mcm5 (budding yeast) = target: T2, Mcm5 (budding yeast) (S. cerevisiae, UniProt P29496 1-775); experiment: as above
T2 construct: Mcm5, S. cerevisiae; stood in the assay as a subunit of m2; also called Mcm5ZnF; source: subunit of CMG from S. cerevisiae strain yJY197, purified as described previously
T2 sequence: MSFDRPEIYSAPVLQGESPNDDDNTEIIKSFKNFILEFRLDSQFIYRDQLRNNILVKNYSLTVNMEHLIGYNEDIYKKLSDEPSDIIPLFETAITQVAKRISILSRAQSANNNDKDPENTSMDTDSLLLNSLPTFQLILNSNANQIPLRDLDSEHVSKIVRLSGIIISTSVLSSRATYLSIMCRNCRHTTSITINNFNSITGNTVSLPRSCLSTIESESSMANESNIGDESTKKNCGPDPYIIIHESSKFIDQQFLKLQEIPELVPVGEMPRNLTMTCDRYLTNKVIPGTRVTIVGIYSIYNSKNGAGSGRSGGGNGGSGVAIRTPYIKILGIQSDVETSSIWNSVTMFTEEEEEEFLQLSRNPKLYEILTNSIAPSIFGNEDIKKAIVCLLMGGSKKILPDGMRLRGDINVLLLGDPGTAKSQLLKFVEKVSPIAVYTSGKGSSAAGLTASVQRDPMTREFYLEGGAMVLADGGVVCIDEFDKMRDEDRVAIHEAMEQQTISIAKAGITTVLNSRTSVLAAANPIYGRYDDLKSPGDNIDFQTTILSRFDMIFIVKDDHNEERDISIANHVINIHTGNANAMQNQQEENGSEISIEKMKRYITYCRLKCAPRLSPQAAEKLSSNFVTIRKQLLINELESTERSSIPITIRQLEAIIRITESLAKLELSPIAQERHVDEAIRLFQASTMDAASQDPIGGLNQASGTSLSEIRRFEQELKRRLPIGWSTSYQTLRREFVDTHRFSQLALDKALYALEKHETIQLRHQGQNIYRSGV

[1] = target: T3, Pol1 (budding yeast Pol α catalytic subunit) (S. cerevisiae, UniProt P13382 1-1468); experiment: as above
T3 construct: Pol1, S. cerevisiae; modelled: CTD 1271-1468 and CIP box F140-S149; stood in the assay as a subunit of m1; also called Pol1CTD; Pol1CIP; source: subunit of Pol α-primase from S. cerevisiae strain yAE95, purified as described previously
T3 sequence: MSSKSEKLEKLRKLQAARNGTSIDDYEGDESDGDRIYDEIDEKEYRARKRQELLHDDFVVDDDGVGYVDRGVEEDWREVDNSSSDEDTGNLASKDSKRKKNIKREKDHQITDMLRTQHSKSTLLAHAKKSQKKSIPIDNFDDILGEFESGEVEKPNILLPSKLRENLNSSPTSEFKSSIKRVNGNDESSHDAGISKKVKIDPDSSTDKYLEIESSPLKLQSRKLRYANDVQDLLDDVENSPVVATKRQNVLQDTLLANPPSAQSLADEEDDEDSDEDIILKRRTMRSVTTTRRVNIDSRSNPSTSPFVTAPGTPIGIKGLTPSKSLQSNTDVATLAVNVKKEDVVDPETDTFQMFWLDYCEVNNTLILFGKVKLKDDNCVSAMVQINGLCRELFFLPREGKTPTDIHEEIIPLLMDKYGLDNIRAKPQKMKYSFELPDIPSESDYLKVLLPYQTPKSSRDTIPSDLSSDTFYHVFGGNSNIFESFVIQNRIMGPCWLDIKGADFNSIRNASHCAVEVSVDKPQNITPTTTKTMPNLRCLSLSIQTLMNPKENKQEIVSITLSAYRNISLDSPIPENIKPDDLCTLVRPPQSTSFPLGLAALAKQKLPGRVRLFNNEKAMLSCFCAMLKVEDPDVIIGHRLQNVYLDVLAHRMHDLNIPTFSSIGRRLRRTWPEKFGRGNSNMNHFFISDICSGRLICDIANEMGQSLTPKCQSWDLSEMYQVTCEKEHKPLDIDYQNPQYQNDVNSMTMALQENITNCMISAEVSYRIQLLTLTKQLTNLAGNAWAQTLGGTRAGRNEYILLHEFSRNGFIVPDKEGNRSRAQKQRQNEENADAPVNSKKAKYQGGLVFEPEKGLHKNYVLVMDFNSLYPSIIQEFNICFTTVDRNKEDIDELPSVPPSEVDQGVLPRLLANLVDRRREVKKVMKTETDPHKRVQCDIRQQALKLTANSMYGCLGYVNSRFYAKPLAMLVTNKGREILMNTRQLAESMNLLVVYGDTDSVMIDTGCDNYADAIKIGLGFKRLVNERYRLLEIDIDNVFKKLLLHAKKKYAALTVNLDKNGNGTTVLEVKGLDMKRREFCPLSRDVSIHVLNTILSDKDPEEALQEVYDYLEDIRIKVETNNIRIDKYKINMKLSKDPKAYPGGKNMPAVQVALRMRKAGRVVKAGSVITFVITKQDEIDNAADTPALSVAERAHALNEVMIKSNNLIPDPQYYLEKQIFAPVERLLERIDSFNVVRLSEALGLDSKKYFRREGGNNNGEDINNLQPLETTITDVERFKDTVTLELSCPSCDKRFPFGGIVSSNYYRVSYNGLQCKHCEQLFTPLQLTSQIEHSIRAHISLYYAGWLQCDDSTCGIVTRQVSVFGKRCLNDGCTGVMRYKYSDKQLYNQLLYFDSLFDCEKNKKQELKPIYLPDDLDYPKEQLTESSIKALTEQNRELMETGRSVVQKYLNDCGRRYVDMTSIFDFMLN

MCM3 (human) = target: T4, MCM3 (human) (human, UniProt P25205 1-808); experiment: cryo-EM structure; human replisome: 150 nM CMG on fork DNA (60 nt or 15 nt 5′ flap) with 1.5-fold molar excess of AND-1, TIMELESS-TIPIN, CLASPIN and Pol α-primase; 25 mM HEPES-NaOH pH 7.6, 150 mM NaOAc, 0.5 mM TCEP, 500 μM AMP-PNP, 10 mM Mg(OAc)2, on ice; 10-30% glycerol gradient with glutaraldehyde and BS3 cross-linkers
T4 construct: MCM3, human; stood in the assay as a subunit of m19
T4 sequence: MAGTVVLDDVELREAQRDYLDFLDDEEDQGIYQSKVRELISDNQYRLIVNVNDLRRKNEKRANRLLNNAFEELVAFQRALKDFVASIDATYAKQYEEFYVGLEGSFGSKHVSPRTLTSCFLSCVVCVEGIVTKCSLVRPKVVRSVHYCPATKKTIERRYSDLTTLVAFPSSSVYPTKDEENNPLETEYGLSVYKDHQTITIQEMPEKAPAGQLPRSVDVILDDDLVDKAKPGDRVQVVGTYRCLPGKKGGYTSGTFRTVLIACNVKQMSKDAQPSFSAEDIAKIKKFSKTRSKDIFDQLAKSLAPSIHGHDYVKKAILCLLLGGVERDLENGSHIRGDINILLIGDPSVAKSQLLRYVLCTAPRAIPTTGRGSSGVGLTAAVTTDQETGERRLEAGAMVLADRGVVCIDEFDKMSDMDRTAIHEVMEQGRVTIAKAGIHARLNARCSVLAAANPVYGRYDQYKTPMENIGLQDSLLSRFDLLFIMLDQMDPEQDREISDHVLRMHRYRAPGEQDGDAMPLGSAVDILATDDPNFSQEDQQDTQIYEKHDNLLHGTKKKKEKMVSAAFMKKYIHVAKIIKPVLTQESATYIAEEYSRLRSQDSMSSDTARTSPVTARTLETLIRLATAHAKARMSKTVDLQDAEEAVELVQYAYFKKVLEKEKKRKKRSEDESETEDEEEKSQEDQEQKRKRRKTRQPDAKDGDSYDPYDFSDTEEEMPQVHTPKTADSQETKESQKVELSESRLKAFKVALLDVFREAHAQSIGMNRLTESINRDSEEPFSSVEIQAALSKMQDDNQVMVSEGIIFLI

[2] = target: T5, POLA2 (human Pol α accessory subunit) (human, UniProt Q14181 1-598); experiment: as above
T5 construct: POLA2, human; stood in the assay as a subunit of m18
T5 sequence: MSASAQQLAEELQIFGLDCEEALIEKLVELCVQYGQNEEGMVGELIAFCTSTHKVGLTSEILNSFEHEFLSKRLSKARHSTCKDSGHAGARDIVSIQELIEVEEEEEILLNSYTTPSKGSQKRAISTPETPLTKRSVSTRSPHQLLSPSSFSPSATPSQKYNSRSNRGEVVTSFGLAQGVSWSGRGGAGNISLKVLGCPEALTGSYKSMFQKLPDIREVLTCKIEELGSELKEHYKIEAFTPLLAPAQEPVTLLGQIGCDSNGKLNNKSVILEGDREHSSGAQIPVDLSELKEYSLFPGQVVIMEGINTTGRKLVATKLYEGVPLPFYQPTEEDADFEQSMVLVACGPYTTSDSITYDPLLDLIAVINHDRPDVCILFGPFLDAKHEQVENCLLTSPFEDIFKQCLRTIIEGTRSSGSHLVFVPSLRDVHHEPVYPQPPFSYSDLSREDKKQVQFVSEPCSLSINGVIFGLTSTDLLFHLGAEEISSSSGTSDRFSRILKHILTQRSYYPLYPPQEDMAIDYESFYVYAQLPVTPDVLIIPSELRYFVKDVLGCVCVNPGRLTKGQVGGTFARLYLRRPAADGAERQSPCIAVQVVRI

T1 sequence (P24279 whole entry): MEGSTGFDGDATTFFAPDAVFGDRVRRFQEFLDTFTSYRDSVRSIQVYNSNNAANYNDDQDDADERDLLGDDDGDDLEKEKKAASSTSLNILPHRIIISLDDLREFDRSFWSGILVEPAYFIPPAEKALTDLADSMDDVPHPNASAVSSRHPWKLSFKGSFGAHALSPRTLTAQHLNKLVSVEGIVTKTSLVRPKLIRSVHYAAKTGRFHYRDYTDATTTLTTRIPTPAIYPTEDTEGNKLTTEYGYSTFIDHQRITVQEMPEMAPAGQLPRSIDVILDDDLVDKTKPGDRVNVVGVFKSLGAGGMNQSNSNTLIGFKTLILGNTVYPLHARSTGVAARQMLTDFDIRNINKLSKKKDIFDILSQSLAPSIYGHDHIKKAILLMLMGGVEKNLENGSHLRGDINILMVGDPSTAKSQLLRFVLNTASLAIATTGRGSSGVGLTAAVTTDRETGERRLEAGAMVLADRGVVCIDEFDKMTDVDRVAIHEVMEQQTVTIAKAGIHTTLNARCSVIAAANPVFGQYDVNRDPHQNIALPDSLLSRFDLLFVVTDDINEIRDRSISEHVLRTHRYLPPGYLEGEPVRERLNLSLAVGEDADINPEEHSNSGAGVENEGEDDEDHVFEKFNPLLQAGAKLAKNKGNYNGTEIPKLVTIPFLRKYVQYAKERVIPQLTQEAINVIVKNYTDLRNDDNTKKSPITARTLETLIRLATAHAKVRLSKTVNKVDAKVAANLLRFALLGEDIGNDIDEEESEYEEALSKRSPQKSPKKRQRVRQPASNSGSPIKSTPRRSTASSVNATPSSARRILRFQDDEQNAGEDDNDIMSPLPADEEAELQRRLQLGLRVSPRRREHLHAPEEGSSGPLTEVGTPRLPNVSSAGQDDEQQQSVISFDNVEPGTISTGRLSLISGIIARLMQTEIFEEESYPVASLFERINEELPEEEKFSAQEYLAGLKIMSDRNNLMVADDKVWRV

binding result (Mcm3 (budding yeast)): binds
binding result (Mcm5 (budding yeast)): binds
binding result [1]: binds
B1: Pri2 (budding yeast primase accessory subunit) (natural protein, S. cerevisiae)
chain: MFRQSKRRIASRKNFSSYDDIVKSELDVGNTNAANQIILSSSSSEEEKKLYARLYESKLSFYDLPPQGEITLEQFEIWAIDRLKILLEIESCLSRNKSIKEIETIIKPQFQKLLPFNTESLEDRKKDYYSHFILRLCFCRSKELREKFVRAETFLFKIRFNMLTSTDQTKFVQSLDLPLLQFISNEEKAELSHQLYQTVSASLQFQLNLNEEHQRKQYFQQEKFIKLPFENVIELVGNRLVFLKDGYAYLPQFQQLNLLSNEFASKLNQELIKTYQYLPRLNEDDRLLPILNHLSSGYTIADFNQQKANQFSENVDDEINAQSVWSEEISSNYPLCIKNLMEGLKKNHHLRYYGRQQLSLFLKGIGLSADEALKFWSEAFTRNGNMTMEKFNKEYRYSFRHNYGLEGNRINYKPWDCHTILSKPRPGRGDYHGCPFRDWSHERLSAELRSMKLTQAQIISVLDSCQKGEYTIACTKVFEMTHNSASADLEIGEQTHIAHPNLYFERSRQLQKKQQKLEKEKLFNNGNH
notes: Pri2, S. cerevisiae; modelled residues 1-5 (N terminus), 44-177 and 181-299 (NTD); stood in the assay as a subunit of m1; also called Pri2NTD; Pri2_(Nterm); source: subunit of Pol α-primase from S. cerevisiae strain yAE95, purified as described previously

binding result (MCM3 (human)): binds
B2: PRIM2 (human primase accessory subunit) (natural protein)
chain: MEFSGRKWRKLRLAGDQRNASYPHCLQFYLQPPSENISLIEFENLAIDRVKLLKSVENLGVSYVKGTEQYQSKLESELRKLKFSYRENLEDEYEPRRRDHISHFILRLAYCQSEELRRWFIQQEMDLLRFRFSILPKDKIQDFLKDSQLQFEAISDEEKTLREQEIVASSPSLSGLKLGFESIYKIPFADALDLFRGRKVYLEDGFAYVPLKDIVAIILNEFRAKLSKALALTARSLPAVQSDERLQPLLNHLSHSYTGQDYSTQGNVGKISLDQIDLLSTKSFPPCMRQLHKALRENHHLRHGGRMQYGLFLKGIGLTLEQALQFWKQEFIKGKMDPDKFDKGYSYNIRHSFGKEGKRTDYTPFSCLKIILSNPPSQGDYHGCPFRHSDPELLKQKLQSYKISPGGISQILDLVKGTHYQVACQKYFEMIHNVDDCGFSLNHPNQFFCESQRILNGGKDIKKEPIQPETPQPKPSVQKTKDASSALASLNSSLEMDMEGLEDYFSEDS
notes: PRIM2, human; modelled residues 1-5 (N terminus) and 17-252 (NTD); stood in the assay as a subunit of m18; also called PRIM2NTD; PRIM2_(Nterm)

binding result [2]: binds
B3: PSF1 (human GINS subunit) (natural protein)
chain: MFCEKAMELIRELHRAPEGQLPAFNEDGLRQVLEEMKALYEQNQSDVNEAKSGGRSDLIPTIKFRHCSLLRNRRCTVAYLYDRLLRIRALRWEYGSVLPNALRFHMAAEEMEWFNNYKRSLATYMRSLGGDEGLDITQDMKPPKSLYIEVRCLKDYGEFEVDDGTSVLLKKNSQHFLPRWKCEQLIRQGVLEHILS
notes: PSF1, subunit of GINS, human; stood in the assay as a subunit of m19
